The target in assay [1] is T1, MBP-MUC16^ecto (maltose binding protein fused to the 26-residue MUC16 ectodomain segment) (Homo sapiens).
T1 construct: linker between MBP and the MUC16 segment; Cloned into pMal-C5X (NEB); Only one of the two PDB entries holds this chain; also called MBP-fused MUC16-target; MBP-tagged MUC16-target (wt); source: E. coli BL21-RIL (DE3), purified (amylose resin, Superdex-75); not shown: MBP, N-terminal, kept
T1 chain: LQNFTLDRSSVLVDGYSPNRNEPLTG
As to the kind of experiment: pull-down; MBP pull-down on amylose resin; MBP-tagged MUC16-target as bait (~20 µg), scFv as prey at 2-fold molar excess; 50 mM Tris-HCl pH 8.0, 400 mM NaCl, 1 mM EDTA, 1 mM DTT, 4 °C, 3 h; three washes; SDS-PAGE. To be noted: both partners purified.

In assay [2] the target is T2, native glycosylated MUC16 expressed on cancer cells (OVCAR3, SKBR3) (human (endogenous in OVCAR3 and SKBR3), UniProt Q8WXI7, glycosylated (native)).
T2 construct: MUC16 (mucin 16), as expressed on the surface of OVCAR3 and SKBR3 cells; also called Mucin 16; cellular MUC16; source: endogenous, on OVCAR3 and SKBR3 cells
As to the kind of experiment: immunostaining of cells or tissue; Alexa-conjugated scFv on fixed cells; Alexa-350-WGA as membrane marker; OVCAR3 and SKBR3 (MUC16-expressing), HEK293T/17 and SKOV3 as controls. To be noted: one partner purified.

Assay [3] deals with T1, MBP-MUC16^ecto (maltose binding protein …). As to the kind of experiment: ITC; ITC200, 23 °C; scFv (12.8 µM) in the cell, MUC16 peptide (144 µM) or MBP-MUC16^ecto (130 µM) in the syringe; 50 mM Tris pH 8.0, 400 mM NaCl (the results say pH 7.4); average of three experiments. The following applies: both partners purified. (ITC needs no label: the signal is the heat of the interaction.)

Assay [4] has as its target T3, commercially synthesized MUC16^ecto peptide (26 residues) (Homo sapiens).
T3 construct: also called synthesized MUC16-target; the synthesized peptide; source: synthetic peptide (commercially synthesized)
T3 chain: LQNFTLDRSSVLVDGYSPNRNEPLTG
The description is as above. To be noted: both partners purified.

Four molecules from paper PMC10875768, “Structural basis for antibody recognition of the proximal MUC16 ectodomain” (Journal of Ovarian Research, 2024) can be followed below.

B1: 4H11-scFv with VH double mutations S53A/D106A (scFv, V domains shown)
VH: EVKLQESGGGFVKPGGSLRVSCAASGFTFSSYAMSWVRLAPEMRLEWVATISAAGGYIFYSDSVQGRFTISRDNAKNSLHLQMGSLRSGDTAMYYCARQGFGNYGAYYAMDYWGQGTTVTVSS
VL: DIELTQSPSSLAVSAGERVTMNCKSSQSLLNSRTRKNQLAWYQQKPGQSPELLIYWASTRQSGVPDRFSGSGSGTDFTLTISSVQAEDVAVYYCQQSYNLLTFGPGTKLEIK
notes: as the VH of m1 (hVH2, E1-S123); linker (GGGGS)5; as the VL of m1 (hVL1, D1-R113 = scFv residues 149-261); Made by QuikChange mutagenesis of m1; also called scFv mutant S53A/D106A; source: ExpiCHO-S, transfected (same lentivector as the wild type)
With B1, the binding result in assay [1] is recorded as “binds”.

B2: 4H11-scFv with VL double mutations Y246A/N247A (scFv, V domains shown)
VH: EVKLQESGGGFVKPGGSLRVSCAASGFTFSSYAMSWVRLAPEMRLEWVATISSAGGYIFYSDSVQGRFTISRDNAKNSLHLQMGSLRSGDTAMYYCARQGFGNYGDYYAMDYWGQGTTVTVSS
VL: DIELTQSPSSLAVSAGERVTMNCKSSQSLLNSRTRKNQLAWYQQKPGQSPELLIYWASTRQSGVPDRFSGSGSGTDFTLTISSVQAEDVAVYYCQQSAALLTFGPGTKLEIK
notes: as the VH of m1 (hVH2, E1-S123); linker (GGGGS)5; as the VL of m1 (hVL1, D1-R113) with the stated changes. numbers count on: the whole scFv (VL begins at D149); Made by QuikChange mutagenesis of m1; also called scFv mutant Y246A/N247A; source: ExpiCHO-S, transfected (same lentivector as the wild type)
In the case of B2, the binding result in assay [1] was “binds”.

B3: Alexa-fluorescence conjugated 4H11-scFv (scFv, V domains shown)
VH: EVKLQESGGGFVKPGGSLRVSCAASGFTFSSYAMSWVRLAPEMRLEWVATISSAGGYIFYSDSVQGRFTISRDNAKNSLHLQMGSLRSGDTAMYYCARQGFGNYGDYYAMDYWGQGTTVTVSS
VL: DIELTQSPSSLAVSAGERVTMNCKSSQSLLNSRTRKNQLAWYQQKPGQSPELLIYWASTRQSGVPDRFSGSGSGTDFTLTISSVQAEDVAVYYCQQSYNLLTFGPGTKLEIK
notes: as the VH of m1 (hVH2, E1-S123); linker (GGGGS)5; as the VL of m1 (hVL1, D1-R113 = scFv residues 149-261); also called Alexa-4H11-scFv; Alexa-labeled scFv; source: purified 4H11-scFv labeled with Alexa Fluor 488 carboxylic acid, further purified by Superdex-75
With B3, the binding result in assay [2] is “binds”.

B4: 4H11-scFv (H2L1), VH-linker (GGGGS)5-VL (scFv, V domains shown)
VH: EVKLQESGGGFVKPGGSLRVSCAASGFTFSSYAMSWVRLAPEMRLEWVATISSAGGYIFYSDSVQGRFTISRDNAKNSLHLQMGSLRSGDTAMYYCARQGFGNYGDYYAMDYWGQGTTVTVSS
VL: DIELTQSPSSLAVSAGERVTMNCKSSQSLLNSRTRKNQLAWYQQKPGQSPELLIYWASTRQSGVPDRFSGSGSGTDFTLTISSVQAEDVAVYYCQQSYNLLTFGPGTKLEIK
notes: humanized 4H11 VH (hVH2 of H2L1), E1-S123; linker (GGGGS)5, residues 124-148 of the scFv; humanized 4H11 VL (hVL1 of H2L1), D1-R113, which are residues 149-261 of the scFv; N-terminal signal peptide in the construct for secretion; also called h4H11-scFv; H2L1 4H11-scFv
Broadly, the Kd is the equilibrium constant for the complex coming apart. The low end stands for higher affinity, the high end for lower affinity. Consider B4, for which the dissociation constant Kd in assay [3] is approximately 2 nM; in assay [4], approximately 1.4 nM.
